From US20030199040A1 come the findings set out here.

The target in assay [1] is mIL-18 (purchased from PeproTech) (murine (printed as mIL-18)) (UniProt P70380). Put plainly: cell-based or functional assay.
Assay [2] addresses mAcPL and mIL-1Rrp1 cotransfected on cells (COS7 or S49.1) (murine) (UniProt Q61098). Put plainly: cell-based or functional assay.

Chain of mIL-18 (purchased from PeproTech) (murine (printed as mIL-18)) (P70380 36-192 limits assumed): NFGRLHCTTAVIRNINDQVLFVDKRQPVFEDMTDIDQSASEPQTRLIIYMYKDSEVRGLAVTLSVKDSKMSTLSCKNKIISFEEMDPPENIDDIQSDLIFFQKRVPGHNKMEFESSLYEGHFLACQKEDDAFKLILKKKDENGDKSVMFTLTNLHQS
Chain of mAcPL and mIL-1Rrp1 cotransfected on cells (COS7 or S49.1) (murine) (Q61098 19-537, chain 1 of 2): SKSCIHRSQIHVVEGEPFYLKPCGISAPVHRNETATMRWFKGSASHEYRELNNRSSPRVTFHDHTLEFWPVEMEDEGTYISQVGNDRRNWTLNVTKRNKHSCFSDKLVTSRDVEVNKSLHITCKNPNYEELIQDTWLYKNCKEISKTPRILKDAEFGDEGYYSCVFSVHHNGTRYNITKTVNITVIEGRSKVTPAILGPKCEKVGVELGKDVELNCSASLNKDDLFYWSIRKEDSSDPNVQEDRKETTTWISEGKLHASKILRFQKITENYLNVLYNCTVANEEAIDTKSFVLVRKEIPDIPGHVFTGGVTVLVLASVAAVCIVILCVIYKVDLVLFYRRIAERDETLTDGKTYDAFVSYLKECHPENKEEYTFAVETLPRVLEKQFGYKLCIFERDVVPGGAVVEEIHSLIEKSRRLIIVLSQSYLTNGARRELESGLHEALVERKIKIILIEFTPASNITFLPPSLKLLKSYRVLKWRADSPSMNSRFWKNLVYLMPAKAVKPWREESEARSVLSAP
Chain of mAcPL and mIL-1Rrp1 cotransfected on cells (COS7 or S49.1) (murine) (chain, as listed by the source, chain 2 of 2): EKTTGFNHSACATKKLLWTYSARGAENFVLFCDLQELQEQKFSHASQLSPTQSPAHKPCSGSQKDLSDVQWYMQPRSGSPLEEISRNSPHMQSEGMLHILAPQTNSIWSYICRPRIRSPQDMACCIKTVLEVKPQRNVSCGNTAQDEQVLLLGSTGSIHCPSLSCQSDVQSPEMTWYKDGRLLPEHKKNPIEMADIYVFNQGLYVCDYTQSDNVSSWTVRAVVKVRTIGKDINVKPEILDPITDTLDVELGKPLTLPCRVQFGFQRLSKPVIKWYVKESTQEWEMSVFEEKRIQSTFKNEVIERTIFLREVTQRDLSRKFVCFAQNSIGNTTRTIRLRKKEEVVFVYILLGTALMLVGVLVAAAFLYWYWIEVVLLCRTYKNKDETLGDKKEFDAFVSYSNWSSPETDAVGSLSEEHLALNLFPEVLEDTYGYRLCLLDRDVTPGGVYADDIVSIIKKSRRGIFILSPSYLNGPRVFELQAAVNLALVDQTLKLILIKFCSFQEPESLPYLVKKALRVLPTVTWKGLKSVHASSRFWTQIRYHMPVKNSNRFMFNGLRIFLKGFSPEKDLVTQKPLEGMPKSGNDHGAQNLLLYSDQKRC

On to “heterogeneous mIL-1Rrp1-Fc+mAcPL-Fc protein mixture (homodimers of mIL-1Rrp1-Fc, homodimers of mAcPL-Fc, and heterodimeric mIL-1Rrp1-Fc/mAcPL-Fc molecules) (from UniProt Q61098 20-322; Q9Z2B1 20-356) (Fc fusion)”, for which, in assay [1], the inhibition of mIL-18 induced NFκB-luciferase activity in Cos7 cells transfected with mIL-1Rrp1 and mAcPL (10 ng/ml mIL-18 preincubated with the protein) amounted to 87%; the luciferase activity (RLU) at 20 ug/ml and 50 ug/ml of the protein mixture; uninduced cells 3×10e3 RLU, mIL-18 without receptor-Fc 25×10e3 RLU came out at 6000 RLU.

For “mIL-18 (purchased from PeproTech) (from UniProt P70380 36-192) (ligand)”, in assay [2], the increase in NFκB DNA binding activity (NFκB-Luc luciferase reporter), COS cells, 40 ng/mL IL-18 for 4 hours was 10 fold and the increase in NFκB DNA binding activity (NFκB-Luc luciferase reporter), S49.1 cells, 40 ng/mL IL-18 for 4 hours is 300 fold.
